Substrate in the data set: O=P(O)(O)O[C@@H]1[C@H](O)[C@H](O)[C@@H](OP(=O)(O)O)[C@H](OP(=O)(O)O)[C@H]1O
Description: ADP luciferase assay, nonlinear regression. It counts as biochemical, Trypanosoma brucei. The settings on record: 200 µM ATP, 2 mM MgCl2, 20 mM HEPES, 150 mM NaCl, pH 7.5, 37°C.

B1: T. brucei IPMK (rIPMK, rTbIPMK) (Trypanosoma brucei brucei TREU927) (protein)
chain: MLNICQNLSSVAKPDLIVVSGHKCNIQRGPQTSIGTPTITKRVTAWEALIYLEMLLAEDEAFAILATFVPPLVALLPPENFASDNWVYVHDPASRPLLKSIFAQLKQMSADTHGYNEVMDTTRWEIILVDVTATFHKPCVLDIKLGYVRHSPHTLPDKVERIHKRQLRRSQPIRFCGAHHQFCRQNNDIGECFELEEFTKDMGYALETEESHRRALRSFFTTASLMTTSNTNETTIIDDRHAMARSRCCRQRVQKLVDFLKGHLGQMLLERIAFVSASLLIVYDATGCCGRNVTVSEGINSMNDMVNVYLIDFSRSGDRRLHFPEEVVGFVQGLEKIIFLLS
Consider B1, for which the Km was 61.41 (±15.37) µM; the Vmax (in general, the top rate of the reaction or transport when substrate is in excess) was 617 µmol/min/mg; the kcat/Km (in general, the turnover number divided by the Michaelis constant) came out at 167000 M⁻¹ s⁻¹.

The record behind these values is article PMC5921579.
